We go through one molecule from patent publication US20200325231A1 (CURATORS OF THE UNIVERSITY OF MISSOURI, published 2020).

Ends that are not written are not given here. * marks the point of attachment. Biotin = O=C1N[C@H]2[C@H](CS[C@H]2CCCCC(=O)*)N1

This test deals with T1, Programmed Cell Death Ligand 1 (PD-L1) (human, UniProt Q9NZQ7 19-290).
T1 construct: whole, on cells; Endogenous PD-L1 on cells or in fixed tissue sections; No recombinant PD-L1 was used; also called CD274
Description: IHC on FFPE placenta, biotinylated peptide, streptavidin-HRP/DAB. From the text: To detect PD-L1 in FFPE tissues, manual IHC techniques were employed with a biotin-conjugated version of peptide RK-10-Cy5 and compared with Ventana PD-L1 (SP263) Rabbit monoclonal Primary Antibody stained on a Roche Benchmark Ultra autostainer. Seven PD-L1 expressing NSCLC patient tissues were obtained from the MU OneHealth tissue bank and de-identified according to IRB protocols. Paraffin-embedded patient tissue slides were baked overnight, then de-waxed and rehydrated according to standard protocols. Tissue sections were then subjected to antigen retrieval in EDTA at 95° C. for 20 minutes in EDTA […]. The solution is then cooled for an additional 20 minutes on the bench top prior to buffer rinse. Tissues were then incubated with 15 biotinylated peptide for 2 hours in a humid chamber at RT. After 2 hours, slides were washed with buffer and treated with PIERCE™ High Sensitivity Streptavidin-HRP (1:200 dilution) (Sigma) for 30 minutes at RT in a humid chamber. Once this was complete, slides were again washed in buffer then treated with DAB (3,3′-Diaminobenzidine; Sigma) for 10 minutes. Slides were again washed in buffer, then dehydrated using graded alcohol and xylene and counterstained with hematoxylin. Slides were then imaged using bright-field microscopy on a Leica DM5500. […]

T1 sequence (Q9NZQ7 19-290): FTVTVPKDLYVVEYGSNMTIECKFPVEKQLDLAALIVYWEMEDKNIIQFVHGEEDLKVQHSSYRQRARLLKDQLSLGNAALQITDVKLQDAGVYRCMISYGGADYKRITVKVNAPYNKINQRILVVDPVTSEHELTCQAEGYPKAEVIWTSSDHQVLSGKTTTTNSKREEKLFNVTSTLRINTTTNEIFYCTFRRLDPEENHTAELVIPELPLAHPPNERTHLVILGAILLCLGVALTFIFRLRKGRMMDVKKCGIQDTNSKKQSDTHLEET

For Biotin-GSGSGSFVLNWYRMSPSNQTDKLAA (also called Mock peptide RK-11-Biotin) [RK-11-Biotin (biotinylated mock peptide)], the binding result is reported as “binds”.
